Consider three compounds from patent publication US20250381277A1, “COMPOSITIONS AND METHODS FOR TREATMENT OF NEUROLOGICAL DISORDERS” (Dana-Farber Cancer Institute, Inc., priority 2022, published 2025).

The target of assay [1] is CD11b on microglia from 5XFAD mice (mouse) (UniProt P05555). Put plainly: flow cytometry, AF488-CD11b fluorescence, microglia from 5XFAD mice; isotype control histogram (top trace) [B].
In assay [2] the target is osteopontin (OPN) produced by mouse microglia (mouse) (UniProt P10923). Put plainly: intracellular flow cytometry, SSC against OPN, microglia of 9-mo mice stained with the isotype control 1:10 (genotype of this panel not labelled).
The target is the same in assay [3]. Put plainly: intracellular flow cytometry, SSC against OPN, microglia stained with the isotype control (the legend says only 'Isotype control'; genotype of this panel not labelled) [b].
A further assay concerns CD11c^− microglia. Put plainly: Apoptotic neuron (AN) uptake and CD11c^- to CD11c^+ differentiation of microglia with αVβ3 / TAM receptor inhibitors. The class given is cell-based, mouse. Particulars: P5 B6-WT CD11c^− microglia, 72 h with pHrodo-labeled ANs 1:1; cilengitide 10 μM, LDC1267 1 μM. From the text: (A) Brain single cell suspensions of 9-mo old WT mice were generated for validation of microglial CD11c expression by flow cytometry. We first gate on CD11b^+ cells from single/live cells followed by subsequent gating of CD11b^+CD45^low populations as potential microglia. […] In contrast, CCR2 but not Tmem 119 expression is detected in the CD11b^+CD45^high fraction, i.e., putative macrophage populations. Analysis of the CD11b^+CD45^low microglial population using FMO negative controls for these FACS plots confirms specificity. […] (B) The proportion of CD11c^+ microglia in C57BL/6 (B6) mice during early development and normal aging (n=3) was determined by flow cytometry analysis. CD11c^+ microglia were initially present at late embryonic day (E18.5), peaked at early postanal day (P5) and gradually declined to marginal levels in young adulthood (3-mon) followed by re-emergence and further expansion during aging. (C) CD11c^− microglia were isolated from P5 B6-WT mice by negative section with anti-CD11c magnetic beads (purity >99%) followed by co-incubation×72 h in the presence or absence of pHrodo fluorescent dye-labeled apoptotic neurons (ANs) at a 1:1 ratio. After 72 h incubation, 23% of total CD11c^− microglia had ingested ANs (AN^+), of which 77.4% of these AN^+ microglia were CD11c^+. […] Expression of CD11c was assessed in CD86^+ or MHC II^+ activated microglia. […]

Chain of UniProt P10923 (P10923 17-294 limits assumed): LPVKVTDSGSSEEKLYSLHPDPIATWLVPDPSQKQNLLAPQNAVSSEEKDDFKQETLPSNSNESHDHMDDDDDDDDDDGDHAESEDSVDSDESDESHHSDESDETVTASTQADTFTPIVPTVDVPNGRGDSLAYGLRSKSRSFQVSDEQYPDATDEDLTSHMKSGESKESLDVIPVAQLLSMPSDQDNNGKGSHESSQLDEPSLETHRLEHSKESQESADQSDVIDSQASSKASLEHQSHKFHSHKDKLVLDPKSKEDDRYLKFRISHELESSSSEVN
Chain of UniProt P05555 (P05555 17-1153): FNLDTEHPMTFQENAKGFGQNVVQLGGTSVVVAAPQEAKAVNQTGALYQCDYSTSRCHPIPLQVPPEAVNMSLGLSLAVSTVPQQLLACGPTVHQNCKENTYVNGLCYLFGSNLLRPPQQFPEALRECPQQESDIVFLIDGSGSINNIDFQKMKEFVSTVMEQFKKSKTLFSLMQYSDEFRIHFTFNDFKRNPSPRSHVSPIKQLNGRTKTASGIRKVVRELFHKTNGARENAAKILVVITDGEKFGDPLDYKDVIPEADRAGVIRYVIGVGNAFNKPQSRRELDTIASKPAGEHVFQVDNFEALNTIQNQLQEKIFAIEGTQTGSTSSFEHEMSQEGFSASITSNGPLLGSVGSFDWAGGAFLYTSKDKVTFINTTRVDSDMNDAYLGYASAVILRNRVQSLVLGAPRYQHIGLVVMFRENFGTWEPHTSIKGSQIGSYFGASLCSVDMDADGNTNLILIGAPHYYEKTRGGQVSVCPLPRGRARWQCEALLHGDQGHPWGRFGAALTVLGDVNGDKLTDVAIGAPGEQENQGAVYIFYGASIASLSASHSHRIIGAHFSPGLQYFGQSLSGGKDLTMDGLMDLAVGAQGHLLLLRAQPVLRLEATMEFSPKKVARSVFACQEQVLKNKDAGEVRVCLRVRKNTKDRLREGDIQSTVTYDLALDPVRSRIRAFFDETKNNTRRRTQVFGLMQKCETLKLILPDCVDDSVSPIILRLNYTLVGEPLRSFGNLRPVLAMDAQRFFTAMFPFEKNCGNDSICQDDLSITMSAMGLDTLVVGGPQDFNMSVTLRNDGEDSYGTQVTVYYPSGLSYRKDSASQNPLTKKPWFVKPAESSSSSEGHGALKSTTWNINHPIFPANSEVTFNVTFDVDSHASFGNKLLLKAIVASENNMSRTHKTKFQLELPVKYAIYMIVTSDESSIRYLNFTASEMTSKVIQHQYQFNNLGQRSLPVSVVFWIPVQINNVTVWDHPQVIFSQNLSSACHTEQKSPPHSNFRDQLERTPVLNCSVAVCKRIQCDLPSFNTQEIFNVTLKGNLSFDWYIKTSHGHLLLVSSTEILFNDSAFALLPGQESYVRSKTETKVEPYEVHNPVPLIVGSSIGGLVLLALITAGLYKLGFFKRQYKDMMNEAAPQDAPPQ

In the case of Isotype (antibody), the CD11b+ microglia (%) in assay [1] was determined as 0.4%.

On to “isotype control (PE-conjugated goat IgG) (antibody)”, for which the number printed over the OPN+ gate (frequency of OPN+ microglia) in assay [2] came out at 0.4%. Besides, the number printed in the OPN+ gate (frequency of OPN+ microglia) in assay [3] was 0.25%.

Regarding `CCOc1cn(-c2ccc(F)cc2C)nc1C(=O)Nc1ccc(Oc2ccnc3cc(OC)c(OC)cc23)c(F)c1` [LDC1267], the “reduction of AN uptake by CD11c^− microglia” value with CD11c^− microglia is on record as “about 50%”.
